Data published in doi:10.1101/2020.10.02.311787 (bioRxiv, 2020).
Where a chain is given by its changes, count along the chain named.

B1: anti-PRL-3 nanobody 26 (VHH)
VHH: QVQLQESGGGLVQPGGSLKLSCVVTGLHYYTEGWFRQAPGKEREGVSCISSSDGRTDYIDSVKGRFTISEDNDNKTVYLQMNTLKPDDTGVYYCVAERGPRGSTWWETYDYWGQGTHVTVSS
B2: anti-PRL-3 nanobody 19 (VHH)
VHH: QVQLQESGGGLVQAGGSLGLSCAASRSIFNFKVMGWYRQAPGKQRELVASITNSDNTYYADSVKGRFTISREDAKTTMYLEMNSLKPEDTAVYRCYGQNWGLRATTYWGQGTQVTVSS
B3: anti-PRL-3 nanobody 84 (VHH)
VHH: B2 VHH with A91T
B4: anti-PRL-3 nanobody 4 (VHH)
VHH: QVQLQESGGGLVQTGGSLRLSCAASQSTYNFDVMGWYRLAPGKQREFLTSITNGGNIYYADSVKGRFTIARDDSKTTMYLEMNSLKPEDTAVYTCYGQTHKPRVTTSWGQGTQVTVSS
B5: anti-PRL-3 nanobody 16 (VHH)
VHH: B4 VHH with Y29F, I69T
B6: anti-PRL-3 nanobody 10 (VHH)
VHH: B4 VHH with Y29F, D32N, T49P, I51L, M78T
B7: anti-PRL-3 nanobody 91 (VHH)
VHH: B4 VHH with Y29F

Experiments:
[1] = biological target: GFP-PRL-2 in HCT116 cells (Homo sapiens, UniProt Q12974); test: immunostaining of cells or tissue
Chain of GFP-PRL-2 in HCT116 cells (Q12974 whole entry): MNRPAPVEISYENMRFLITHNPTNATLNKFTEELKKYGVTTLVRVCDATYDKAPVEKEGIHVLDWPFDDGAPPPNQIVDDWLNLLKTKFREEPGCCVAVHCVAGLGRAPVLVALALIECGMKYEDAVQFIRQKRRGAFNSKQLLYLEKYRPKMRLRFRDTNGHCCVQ

[2] = biological target: GFP-PRL-1 in HCT116 cells (Homo sapiens, UniProt Q93096); test: immunostaining of cells or tissue
Chain of GFP-PRL-1 in HCT116 cells (Q93096 whole entry): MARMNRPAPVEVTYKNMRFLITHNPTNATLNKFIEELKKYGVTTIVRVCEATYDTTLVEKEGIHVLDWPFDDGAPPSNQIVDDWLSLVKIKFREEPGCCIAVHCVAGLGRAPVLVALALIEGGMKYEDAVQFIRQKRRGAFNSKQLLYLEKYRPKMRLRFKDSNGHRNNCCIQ

[3] = biological target: T1, Phosphatase of Regenerating Liver-3 (PRL-3), recombinant (Homo sapiens, UniProt O75365); test: BLI
T1 sequence (O75365 whole entry): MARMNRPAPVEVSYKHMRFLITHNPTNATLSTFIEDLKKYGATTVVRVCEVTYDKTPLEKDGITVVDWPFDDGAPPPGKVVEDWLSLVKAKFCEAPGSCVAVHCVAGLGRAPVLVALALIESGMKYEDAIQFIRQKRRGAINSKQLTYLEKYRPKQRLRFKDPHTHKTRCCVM

[4] = biological target: 3XFLAG-PRL-3 in HEK293T cells (Homo sapiens, UniProt O75365); test: pull-down
Chain of 3XFLAG-PRL-3 in HEK293T cells (O75365 whole entry): as above

[5] = biological target: T1, Phosphatase of Regenerating Liver-3 …; test: ELISA
[6] = biological target: GFP-PRL-3 in HCT116 cells (Homo sapiens, UniProt O75365); test: immunostaining of cells or tissue
Chain of GFP-PRL-3 in HCT116 cells (O75365 whole entry): as above

[7] = biological target: untagged (wild-type) PRL-3 in HCT116 cells (Homo sapiens, UniProt O75365); test: immunostaining of cells or tissue
Chain of untagged (wild-type) PRL-3 in HCT116 cells (O75365 whole entry): as above

[8] = biological target: 3XFLAG-PRL-3 in HCT116 cells (Homo sapiens, UniProt O75365); test: immunostaining of cells or tissue
Chain of 3XFLAG-PRL-3 in HCT116 cells (O75365 whole entry): as above

[9] = biological target: 3XFLAG-tagged PRL-3, recombinant (human, UniProt O75365); test: co-IP
Chain of 3XFLAG-tagged PRL-3, recombinant (O75365 whole entry): as above

[10] = biological target: T1, Phosphatase of Regenerating Liver-3 …; test: HDX-MS

Row | Binder | binding result [1] | binding result [2] | Kd [3] | binding result [4] | binding result [5] | binding result [6] | binding result [7] | binding result [8] | binding result [9] | binding result [10]
1 | B1 | no binding (tested: 1:100 of 1 mg/mL) | no binding (tested: 1:100 of 1 mg/mL) | 28.9 nM | – | – | – | – | – | – | –
2 | B2 | – | – | 98.4 nM | – | – | – | – | – | – | –
3 | B3 | – | – | – | binds | binds | binds | – | – | – | –
4 | B4 | – | – | – | binds | binds | binds | – | – | – | –
5 | B5 | – | – | – | binds | binds | binds | – | – | – | –
6 | B6 | no binding (tested: 1:100 of 1 mg/mL) | no binding (tested: 1:100 of 1 mg/mL) | – | binds | binds | binds | – | – | – | –
7 | B7 | no binding (tested: 1:100 of 1 mg/mL) | no binding (tested: 1:100 of 1 mg/mL) | – | binds | – | binds | binds | binds | binds | binds
